From PMC6101532

What was measured:
[1] = molecular target: MBP–RsbN α3 (maltose binding protein joined by a linker to RsbN α3) (Streptomyces venezuelae); experiment: SEC
[2] = molecular target: his-tagged RsbN(1–91) (Streptomyces venezuelae); experiment: SEC

Row | Substance | stoichiometry N [1] | stoichiometry N [2]
1 | BldN (σ^BldN), full length, wild type (natural protein) | 1 | –
2 | BldN domain 2 (σ2), non-tagged (domain or fragment) | – | 1
3 | BldN domain 4 (σ4), non-tagged (domain or fragment) | – | 1
